Data reported in patent publication US10077295B2, “Glycoproteins having lipid mobilizing properties and therapeutic uses thereof” (Aston University, priority 2010, dated 2018).

Assays:
[1] = tested on: murine epididymal adipocytes; experiment: Lipolytic assay (glycerol release) in murine adipocytes; assay type: cell-based, mouse
Protocol: Cell Culture and Purification of ZAG. Single-cell suspensions of white adipocytes were prepared from minced adipose deposits by incubation at 37° C. for 2 h in Krebs-Ringer biocarbonate buffer containing 1.5 mgml^−1 collagenase, and 4% bovine serum albumin under an atmosphere of 95% oxygen: 5% CO2 as previously described. For time-course studies adipocytes were suspended in DMEM containing 10% fetal calf serum at a concentration of 10^5 cells ml^−1 and maintained under an atmosphere of 10% CO2 in air at 37° C. Human 293 cells transfected with a plasmid containing human ZAG were seeded at a concentration of 10^5 cells ml^−1 in FreeStyle medium and maintained under an atmosphere of 5% CO2 in air at 37° C. Maximal protein levels (16 μgml^−1) were obtained after 14 days of culture. The media (200 ml) was then centrifuged at 700 g for 15 min to remove cells and concentrated into a volume of 1 ml of sterile PBS using an Amicon Ultra-15 centrifugal filter with a 10 kDa cut-off After measurement of the protein concentration of the sample (about 2 mg) it was added to 2 g DEAE cellulose suspended in 20 ml of 10 mM Tris, pH8.8 and stirred at 4° C. for 2 h. ZAG being negatively charged binds to the DEAE cellulose, which was sedimented by centrifugation (1500 g for 15 min), and eluted by stirring with 20 ml 10 mM Tris, pH8.8 containing 0.3M NaCl for 30 min at 4° C. The supernatant was washed and concentrated to a volume of 1 ml in sterile PBS using the Amicon centrifugal filter.
Lipolytic assay. Samples to be assayed were incubated with 10^5 to 2×10^5 adipocytes for 2 h in 1 ml Krebs-Ringer bicarbonate buffer, pH 7.2. The concentration of glycerol released was determined enzymatically by the method of Wieland (Wieland, O. Glycerol UV method. In Methods of Enzymatic Analysis (ed. Bergmeyer, H.U.) (Academic Press, London, UK, pp 1404-1409, 1974)). Control samples containing adipocytes alone were analysed to determine the spontaneous glycerol release. Activity was expressed as μmol glycerol released/10^5 adipocytes/2 h.

[2] = tested on: gastrocnemius muscle of ob/ob mice; experiment: Proteasome activity and Western blots in gastrocnemius muscle of ZAG-treated ob/ob mice; assay type: in vivo, mouse
Protocol: Measurement of Proteasome and Caspase Activity. […] Gastrocnemius muscle was homogenised in 20 mM Tris, pH7.5, 2 mM ATP, 5 mM MgCl2 and 50 mM DTT at 4° C., sonicated and centrifuged at 18,000 g for 10 min at 4° C. to pellet insoluble material, and the resulting supernatant was used to measure ‘chymotrypsin-like’ enzyme activity in the presence or absence of the proteasome inhibitor lactacystin (10 μM). Only lactacystin suppressible activity was considered as true proteasome activity. The activity of caspase-3 was determined by the release of AMC from AcAsp.Gly.Val.Asp.AMC (SEQ ID NO: 3), and the activity of caspase-8 was determined by the release of 7-amino-4-trifluromethylcoumarin (AFC) from the specific substrate Z-Ile Glu Phe Thr Asp-AFC (SEQ ID NO: 4), using the supernatant from above (50 μg protein), and either the caspase-3 or -8 substrate (10 μM) for 1 h at 37° C., in the presence or absence of the caspase-3 (AcAspGluValAsp-CHO) (SEQ ID NO: 5) or caspase-8 (Ile Glu Phe Thr Asp-CHO) (SEQ ID NO: 6) inhibitors (100 μM). The increase in fluorescence due to […] was determined as above, while the increase in fluorescence due to AFC was measured with an excitation wavelength of 400 nm and an emission wavelength of 505 nm. The difference in values in the absence and presence of the caspase inhibitors was a measure of activity.
Western Blot Analysis. Freshly excised gastrocnemius muscles were washed in PBS and lysed in PHOSPHOSAFE™ Extraction Reagent for 5 min at room temperature followed by sonication at 4° C. The lysate was cleared by centrifugation at 18,000 g for 5 min at 4° C. and samples of cytosolic protein (5 μg) were resolved on 12% sodium dodecyl sulfate-polyacrylamide gel electrophoresis at 180V for approximately 1 h. This was followed by transference to 0.45 μm nitrocellulose membranes, which were then blocked with 5% Marvel in Tris-buffered saline, pH 7.5, at 4° C. overnight. Both primary and secondary antibodies were used at a dilution of 1:1000 except anti-myosin (1:250). Incubation was for 1 h at room temperature, and development was by ECL. Blots were scanned by a densitometer to quantify differences.

murine myotubes = experiment: Murine myotubes subjected to high glucose: protein degradation, protein synthesis, ROS, pPKR; assay type: cell-based, mouse
Protocol: This utilizes murine myotubes subjected to high concentrations of glucose (10 or 25 mM). […] However the SR compound (i.e., SR59230A) can also act as a β-agonist, which it seemed to do in these experiments.
It has been shown that formation of reactive oxygen species (ROS) is important in protein degradation induced by high glucose load. […] High glucose also induces activation (phosphorylation) of PKR (FIG. 22A) and the subsequent phosphorylation of eIF2α (FIG. 22B) as is seen in skeletal muscle of ob/ob mice, which was also attenuated by ZAG.

[3] = tested on: WAT, BAT and gastrocnemius muscle of male Wistar rats; experiment: Western blots of tissues from rats treated with ZAG; assay type: in vivo, rat
Protocol: Samples of epididymal WAT, BAT and gastrocnemius muscle excised from rats treated with ZAG or PBS for 5 days were homogenized in 0.25M sucrose, 1 mM HEPES, pH 7.0 and […], and then centrifuged for 10 min at 4,500 rpm. Samples of cytosolic protein (10 μg) were resolved on 12% sodium dodecylsulphate polyacrylamide gel electrophoresis and the proteins were then transferred onto 0.45 μm nitrocellulose membranes, which had been blocked with 5% Marvel in Tris-buffered saline, pH 7.5, at 4° C. overnight, and following four 15 min washes with 0.1% Tween in PBS, incubation with the secondary antibody was performed for 1 h at room temperature. Development was by ECL.

[4] = 10 or 25 mM glucose, ZAG 25 μg/ml

B1: ZAG: recombinant full length human zinc-α2-glycoprotein (SEQ ID NO: 1) secreted by transfected HEK293F cells; lipid mobilizing factor (protein, listed as Homo sapiens)
chain: QENQDGRYSLTYIYTGLSKHVEDVPAFQALGSLNDLQFFRYNSKDRKSQPMGLWRQVEGMEDWKEDSQLQKAREDMETLKDIVEYYNDSNGSHVLQGRFGCEIENNRSSGAFWKYYYDGKDYIEFNKEIPAWVPFDPAAQITKQKWEAEPVYVQRAKAYLEEECPATLRKYLKYSKNILDRQDPPSVVVTSHQAPGEKKKLKCLAYDFYPGKIDVHWTRAGQVQEPELRGDVLHNGNGTYQSWVVVAVPPQDTAPYSCHVQHSSLAQPLVVPWEAS
lipolytic effect in adipocytes from subcutaneous and visceral deposits ([1]; compared with epididymal adipocytes): considerably reduced
lipolysis in epididymal adipocytes ([1]; mouse adipocytes): stimulated lipolysis
effect of a single freezing and thawing cycle on lipolytic activity ([1]; murine epididymal adipocytes): destroyed
potency at inducing lipolysis compared with isoprenaline ([1]; on a molar basis): more potent at inducing lipolysis than isoprenaline on a molar basis
expression of 20S proteasome α-subunits and p42 ([2]; gastrocnemius muscle): decreased expression
phosphorylated forms of PKR and eIF2α ([2]; gastrocnemius muscle): reduction in the level of phosphorylated forms
proteasome 'chymotrypsin-like' enzyme activity ([2]; gastrocnemius muscle): decreased activity
myosin levels ([2]; skeletal muscle): increased
effect on depression of protein synthesis by high glucose (murine myotubes; [4]): completely attenuated
effect on protein degradation stimulated by high glucose (murine myotubes; [4]): completely attenuated
effect on glucose-induced phosphorylation of PKR and eIF2α (murine myotubes; myotubes): attenuated
effect on increase in ROS produced by glucose (murine myotubes; myotubes): completely attenuates
expression of ATGL and HSL in epididymal adipose tissue ([3]; rats): two-fold increase
expression of UCP-1 and -3 in BAT and WAT ([3]; rats): almost two-fold
phosphorylated forms of PKR and eIF2 α-subunit in gastrocnemius muscle ([3]; rats): significant reduction
expression of ZAG in skeletal muscle, WAT and BAT ([3]; rats treated for 10 days): significantly increased
